{
  "source": "patent US20130064836A1",
  "about": "(Novartis, published 2013)",
  "binders": {"B1": {"name": "MOR07871 (Fab, V domains shown)", "VH": "QVQLVQSGAEVKKPGESLKISCKGSGYSFTSYYIGWVRQMPGKGLEWMGIIDPSDSHTTYSPSFQGQVTISADKSISTAYLQWSSLKASDTAMYYCARYMMRGFDHWGQGTLVTVSS", "VL": "DIELTQPPSVSVAPGQTARISCSGDSLGDYYAYWYQQKPGQAPVLVIYKDNNRPSGIPERFSGSNSGNTATLTISGTQAEDEADYYCQTWDTGESGVFGGGTKLTVLG", "notes": "light CS or A"}},
  "key": {"[1]": {"biological_target": "T1, human complement C5 protein (human, UniProt P01031 19-673; P01031 678-1676, Beta and alpha chains are joined by disulfide bonds. C5 was biotinylated in some assays.)", "experiment": "cell-based or functional assay"}, "[2]": {"biological_target": "T1, human complement C5 protein", "experiment": "solution ELISA: Fab with biotinylated antigen on NeutrAvidin plate, His-tag detection [huC5 panel]", "description": "(§1) Fabs were incubated with biotinylated antigen on a Neutravidin plate and detected via the histidin tag."}, "[3]": {"biological_target": "T1, human complement C5 protein", "experiment": "cell-based or functional assay", "remark": "listed apart in the source"}, "[4]": {"biological_target": "T2, cynomolgus C5 (Macaca fascicularis) (cynomolgus (Macaca fascicularis), Beta and alpha chains are joined by disulfide bonds; the protein is a serum glycoprotein.)", "T2 construct": "also called cyno C5; cynoC5", "T2 beta": "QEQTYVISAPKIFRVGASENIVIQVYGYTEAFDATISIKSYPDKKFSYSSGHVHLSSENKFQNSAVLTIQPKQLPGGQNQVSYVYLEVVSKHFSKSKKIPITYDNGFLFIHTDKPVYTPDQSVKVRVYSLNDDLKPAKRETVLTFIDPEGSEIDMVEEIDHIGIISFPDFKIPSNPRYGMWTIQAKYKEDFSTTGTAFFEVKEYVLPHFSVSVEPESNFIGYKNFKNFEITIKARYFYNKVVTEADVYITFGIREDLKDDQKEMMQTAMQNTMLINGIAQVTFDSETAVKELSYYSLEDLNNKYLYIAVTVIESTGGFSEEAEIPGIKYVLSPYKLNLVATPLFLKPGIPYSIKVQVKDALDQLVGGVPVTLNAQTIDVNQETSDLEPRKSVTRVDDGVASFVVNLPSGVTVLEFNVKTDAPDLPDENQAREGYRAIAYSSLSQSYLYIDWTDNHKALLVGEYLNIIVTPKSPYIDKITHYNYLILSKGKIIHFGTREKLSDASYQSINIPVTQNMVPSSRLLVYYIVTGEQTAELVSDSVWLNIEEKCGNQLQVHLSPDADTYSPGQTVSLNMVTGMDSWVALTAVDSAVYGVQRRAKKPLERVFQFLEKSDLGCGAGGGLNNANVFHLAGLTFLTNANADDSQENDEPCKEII", "T2 alpha": "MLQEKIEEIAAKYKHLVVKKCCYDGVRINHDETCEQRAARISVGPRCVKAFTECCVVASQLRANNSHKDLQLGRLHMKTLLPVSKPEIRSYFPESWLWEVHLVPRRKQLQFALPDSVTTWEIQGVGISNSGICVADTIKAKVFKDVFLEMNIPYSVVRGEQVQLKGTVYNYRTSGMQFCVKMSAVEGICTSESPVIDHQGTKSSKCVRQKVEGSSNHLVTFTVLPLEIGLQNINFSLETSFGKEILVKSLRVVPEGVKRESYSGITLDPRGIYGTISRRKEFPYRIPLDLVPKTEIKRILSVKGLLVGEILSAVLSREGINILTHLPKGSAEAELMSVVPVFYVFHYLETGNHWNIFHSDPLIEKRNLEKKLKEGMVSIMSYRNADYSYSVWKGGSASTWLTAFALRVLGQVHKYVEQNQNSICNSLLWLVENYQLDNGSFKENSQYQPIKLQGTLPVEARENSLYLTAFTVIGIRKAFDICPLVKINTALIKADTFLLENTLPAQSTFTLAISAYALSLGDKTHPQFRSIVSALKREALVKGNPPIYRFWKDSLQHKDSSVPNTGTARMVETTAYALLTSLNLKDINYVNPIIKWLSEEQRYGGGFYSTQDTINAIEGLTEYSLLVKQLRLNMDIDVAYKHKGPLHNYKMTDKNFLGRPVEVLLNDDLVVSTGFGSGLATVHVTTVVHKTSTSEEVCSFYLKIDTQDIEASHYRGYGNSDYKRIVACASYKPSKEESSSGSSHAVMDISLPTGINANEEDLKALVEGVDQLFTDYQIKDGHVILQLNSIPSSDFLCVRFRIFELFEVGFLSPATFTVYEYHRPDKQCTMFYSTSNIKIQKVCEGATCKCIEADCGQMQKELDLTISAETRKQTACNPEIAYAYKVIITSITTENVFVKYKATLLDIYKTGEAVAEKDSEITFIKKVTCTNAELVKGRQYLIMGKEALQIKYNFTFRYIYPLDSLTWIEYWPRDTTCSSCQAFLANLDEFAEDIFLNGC", "experiment": "solution ELISA: Fab with biotinylated antigen on NeutrAvidin plate, His-tag detection [cynoC5 panel]", "description": "as §1"}, "[5]": {"biological_target": "T2, cynomolgus C5 (Macaca fascicularis)", "experiment": "cell-based or functional assay"}, "human complement C3": {"biological_target": "T3, human complement C3 (human, UniProt P01024 23-667; P01024 672-1663)", "T3 construct": "Counter target in the ELISAs, coated directly or biotinylated; also called human C3", "T3 sequence (P01024 23-667 limits assumed, chain 1 of 2)": "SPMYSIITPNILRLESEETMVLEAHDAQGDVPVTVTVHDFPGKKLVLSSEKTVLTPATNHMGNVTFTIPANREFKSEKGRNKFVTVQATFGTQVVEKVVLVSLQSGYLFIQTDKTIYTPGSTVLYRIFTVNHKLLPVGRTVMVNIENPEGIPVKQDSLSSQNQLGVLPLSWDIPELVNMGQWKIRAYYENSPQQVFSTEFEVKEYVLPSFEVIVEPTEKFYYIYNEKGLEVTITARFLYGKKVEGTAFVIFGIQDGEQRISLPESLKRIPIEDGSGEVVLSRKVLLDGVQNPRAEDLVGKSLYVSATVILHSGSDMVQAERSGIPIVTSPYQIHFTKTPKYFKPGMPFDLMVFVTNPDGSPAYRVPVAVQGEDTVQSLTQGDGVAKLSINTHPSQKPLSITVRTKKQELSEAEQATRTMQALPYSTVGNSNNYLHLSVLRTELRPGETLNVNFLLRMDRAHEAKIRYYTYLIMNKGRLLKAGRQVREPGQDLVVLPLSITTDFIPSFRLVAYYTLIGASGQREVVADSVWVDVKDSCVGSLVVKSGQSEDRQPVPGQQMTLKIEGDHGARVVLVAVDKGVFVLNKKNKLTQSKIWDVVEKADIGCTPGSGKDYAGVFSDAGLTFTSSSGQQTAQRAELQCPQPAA", "T3 sequence (P01024 672-1663 limits assumed, chain 2 of 2)": "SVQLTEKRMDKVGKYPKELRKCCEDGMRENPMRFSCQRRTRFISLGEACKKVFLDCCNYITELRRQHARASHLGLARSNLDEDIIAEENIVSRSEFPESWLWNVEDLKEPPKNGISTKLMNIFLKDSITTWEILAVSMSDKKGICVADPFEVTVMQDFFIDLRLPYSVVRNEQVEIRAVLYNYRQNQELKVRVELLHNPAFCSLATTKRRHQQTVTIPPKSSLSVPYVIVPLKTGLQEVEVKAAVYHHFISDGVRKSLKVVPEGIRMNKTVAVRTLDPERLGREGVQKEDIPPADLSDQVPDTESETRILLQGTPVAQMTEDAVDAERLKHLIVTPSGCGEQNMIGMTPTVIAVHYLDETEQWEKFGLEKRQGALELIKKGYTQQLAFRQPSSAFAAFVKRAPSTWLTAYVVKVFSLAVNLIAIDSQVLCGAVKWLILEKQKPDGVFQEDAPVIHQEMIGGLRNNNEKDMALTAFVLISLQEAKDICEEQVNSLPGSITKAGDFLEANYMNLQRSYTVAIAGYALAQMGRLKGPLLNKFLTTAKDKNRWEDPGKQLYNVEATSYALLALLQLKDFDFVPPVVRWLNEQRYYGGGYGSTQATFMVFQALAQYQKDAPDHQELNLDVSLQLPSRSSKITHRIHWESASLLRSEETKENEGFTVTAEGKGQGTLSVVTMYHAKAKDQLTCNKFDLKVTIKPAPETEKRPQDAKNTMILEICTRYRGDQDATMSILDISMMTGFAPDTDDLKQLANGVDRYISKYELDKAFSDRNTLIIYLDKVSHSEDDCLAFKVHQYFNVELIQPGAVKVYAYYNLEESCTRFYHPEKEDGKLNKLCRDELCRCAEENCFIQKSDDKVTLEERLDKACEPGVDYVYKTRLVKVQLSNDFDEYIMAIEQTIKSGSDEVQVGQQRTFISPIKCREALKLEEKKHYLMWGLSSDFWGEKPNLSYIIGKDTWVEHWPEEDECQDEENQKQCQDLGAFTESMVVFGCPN", "experiment": "solution ELISA: Fab with biotinylated antigen on NeutrAvidin plate, His-tag detection [huC3 panel]", "description": "as §1"}, "[6]": {"biological_target": "T1, human complement C5 protein", "experiment": "SET (MSD), purified Fab", "description": "(§2) Streptavidin MSD plates were coated with 0.2 μg/ml biotinylated human C5 (30 μl/well) and blocked with 5% BSA in PBS. Subsequently the equilibrated samples were transferred to those plates (30 μl per well) and incubated for 20 min."}, "[7]": {"biological_target": "T2, cynomolgus C5 (Macaca fascicularis)", "experiment": "SET (MSD), purified Fab", "description": "as §2"}},
  "data": [
    {"binder": "B1", "values": [
      {"measurement": "IC50; hemolysis AP, 100 pM human C5 [panel j]", "setting": "[1]", "result": 36.6, "unit": "pM"},
      {"measurement": "EC50", "setting": "[2]", "result": 0.849, "unit": "nM"},
      {"measurement": "IC50; hemolysis AP, 100 pM human C5 [panel f]", "setting": "[3]", "result": 54.5, "unit": "pM"},
      {"measurement": "EC50", "setting": "[4]", "result": 0.617, "unit": "nM"},
      {"measurement": "IC50; hemolysis AP, 100 pM cyno C5 in 20% human C5-depleted serum [panel a]", "setting": "[5]", "result": 0.111, "unit": "nM"},
      {"measurement": "IC50; hemolysis AP, 100 pM cyno C5 in 20% human C5-depleted serum [panel f]", "setting": "[5]", "result": 0.137, "unit": "nM"},
      {"measurement": "binding result", "setting": "human complement C3", "result": "no binding (tested: 100 nM)"},
      {"measurement": "Kd", "setting": "[6]", "result": 0.003, "unit": "nM"},
      {"measurement": "Kd", "setting": "[7]", "result": 0.004, "unit": "nM"}
    ]}
  ]
}
